Patent publication US20190284293A1 (Bristol-Myers Squibb, published 2019)

T1: human CD73 on cells (human, UniProt P21589 27-549)
T1 sequence: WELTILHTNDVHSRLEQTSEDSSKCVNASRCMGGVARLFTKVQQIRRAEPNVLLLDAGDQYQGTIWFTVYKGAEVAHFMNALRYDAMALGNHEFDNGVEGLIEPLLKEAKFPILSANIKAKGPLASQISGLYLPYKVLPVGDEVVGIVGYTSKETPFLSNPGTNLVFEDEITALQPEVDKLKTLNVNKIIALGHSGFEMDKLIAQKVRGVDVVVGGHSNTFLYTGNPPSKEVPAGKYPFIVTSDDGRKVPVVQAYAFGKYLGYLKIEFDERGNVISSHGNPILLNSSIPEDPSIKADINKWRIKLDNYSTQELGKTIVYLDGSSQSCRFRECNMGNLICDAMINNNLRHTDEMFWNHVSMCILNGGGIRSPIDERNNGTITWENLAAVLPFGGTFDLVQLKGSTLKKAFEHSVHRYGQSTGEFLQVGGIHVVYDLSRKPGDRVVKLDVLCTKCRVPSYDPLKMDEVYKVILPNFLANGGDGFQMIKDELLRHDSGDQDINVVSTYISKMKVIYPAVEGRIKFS

T2: N-hCD73-his (N-terminal domain of human CD73, residues 26-336, His tag) (human, UniProt P21589 26-336)
T2 sequence: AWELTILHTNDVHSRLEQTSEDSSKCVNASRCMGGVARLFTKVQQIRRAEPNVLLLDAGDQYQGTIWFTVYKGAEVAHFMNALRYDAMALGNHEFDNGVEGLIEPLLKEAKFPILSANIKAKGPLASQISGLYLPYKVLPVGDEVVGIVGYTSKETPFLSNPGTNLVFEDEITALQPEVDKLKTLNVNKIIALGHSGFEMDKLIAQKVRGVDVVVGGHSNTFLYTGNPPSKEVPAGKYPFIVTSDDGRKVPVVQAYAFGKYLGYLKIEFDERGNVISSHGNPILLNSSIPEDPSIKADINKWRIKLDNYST


Columns and labels:
human CD73 on cells = target: T1, human CD73 on cells; test: cell-based or functional assay
[1] = target: T2, N-hCD73-his (N-terminal domain of human …); test: SPR, mAb captured on protein A
Experimental: For these experiments, protein A (Pierce) was immobilized to a density of 3000-4000 RU on flow cells 1-4 of a CM5 sensor chip (GE Healthcare) using standard ethyl(dimethylaminopropyl) carbodiimide (EDC)/N-hydroxysuccinimide […] chemistry, with ethanolamine blocking, in a running buffer of 0.01 M HEPES pH 7.4, 0.15 M NaCl, 3 mM EDTA, 0.005% v/v tween 20. […] The running buffer for the kinetic experiments was 10 mM sodium phosphate, 130 mM sodium chloride, 0.05% tween 20, pH 7.1. The surfaces were regenerated after each cycle using two 30 s pulses of 10 mM glycine pH 1.5 at a flow rate of 30 μl/min. Sensogram data was double-referenced and then fitted to a 1:1 Langmuir model using Biacore T100 evaluation software v2.0.4, to determine the association rate constant (ka), the dissociation rate constant (kd), and the equilibrium dissociation constant (KD).

Binder	CD73 Inhibition S:B (inhibition versus background) (human CD73 on cells)	CD73 Inhibition EC50 (nM), cAMP assay, Calu6 (human CD73 on cells)	Kd [1]	koff [1]	kon [1]
CD73.4-IgG2.3-plusTHT (antibody) heavy: QVQLVESGGGVVQPGRSLRLSCAASGFTFSNYGMHWVRQAPGKGLEWVAVILYDGSNKYYPDSVKGRFTISRDNSKNTLYLQMNSLRAEDTAVYYCARGGSSWYPDSFDIWGQGTMVTVSSASTKGPSVFPLAPCSRSTSESTAALGCLVKDYFPEPVTVSWNSGALTSGVHTFPAVLQSSGLYSLSSVVTVPSSNFGTQTYTCNVDHKPSNTKVDKTVERKSCVETHTCPPCPAPPVAGPSVFLFPPKPKDTLMISRTPEVTCVVVDVSHEDPEVQFNWYVDGVEVHNAKTKPREEQFNSTFRVVSVLTVVHQDWLNGKEYKCKVSNKGLPAPIEKTISKTKGQPREPQVYTLPPSREEMTKNQVSLTCLVKGFYPSDIAVEWESNGQPENNYKTTPPMLDSDGSFFLYSKLTVDKSRWQQGNVFSCSVMHEALHNHYTQKSLSLSPGK light: not shown	33	–	–	–	–
CD73.4-IgG2.5-plusTHT (antibody) heavy: QVQLVESGGGVVQPGRSLRLSCAASGFTFSNYGMHWVRQAPGKGLEWVAVILYDGSNKYYPDSVKGRFTISRDNSKNTLYLQMNSLRAEDTAVYYCARGGSSWYPDSFDIWGQGTMVTVSSASTKGPSVFPLAPSSRSTSESTAALGCLVKDYFPEPVTVSWNSGALTSGVHTFPAVLQSSGLYSLSSVVTVPSSNFGTQTYTCNVDHKPSNTKVDKTVERKCCVETHTCPPCPAPPVAGPSVFLFPPKPKDTLMISRTPEVTCVVVDVSHEDPEVQFNWYVDGVEVHNAKTKPREEQFNSTFRVVSVLTVVHQDWLNGKEYKCKVSNKGLPAPIEKTISKTKGQPREPQVYTLPPSREEMTKNQVSLTCLVKGFYPSDIAVEWESNGQPENNYKTTPPMLDSDGSFFLYSKLTVDKSRWQQGNVFSCSVMHEALHNHYTQKSLSLSPGK light: not shown	44	0.9 nM	–	–	–
CD73.4-IgG2.3-plusGGG (antibody) heavy: QVQLVESGGGVVQPGRSLRLSCAASGFTFSNYGMHWVRQAPGKGLEWVAVILYDGSNKYYPDSVKGRFTISRDNSKNTLYLQMNSLRAEDTAVYYCARGGSSWYPDSFDIWGQGTMVTVSSASTKGPSVFPLAPCSRSTSESTAALGCLVKDYFPEPVTVSWNSGALTSGVHTFPAVLQSSGLYSLSSVVTVPSSNFGTQTYTCNVDHKPSNTKVDKTVERKSCVEGGGCPPCPAPPVAGPSVFLFPPKPKDTLMISRTPEVTCVVVDVSHEDPEVQFNWYVDGVEVHNAKTKPREEQFNSTFRVVSVLTVVHQDWLNGKEYKCKVSNKGLPAPIEKTISKTKGQPREPQVYTLPPSREEMTKNQVSLTCLVKGFYPSDIAVEWESNGQPENNYKTTPPMLDSDGSFFLYSKLTVDKSRWQQGNVFSCSVMHEALHNHYTQKSLSLSPGK light: not shown	–	1.26 nM	–	–	–
CD73.6-IgG2-C219S-IgG1.1f (antibody, also called CD73.6-IgG2CS IgG1.1f; mAb-CD73.6-Vh-hHC-IgG2-C219S-IgG1.1f) heavy: QVQLVESGGGVVQPGRSLRLSCAASGFTFSNYGMHWVRQAPGKGLEWVAVILYDSSNKYYPDSVKGRFTISRDNSKNTLYLQMNSLRAEDTAVYYCARGGSSWYPDSFDIWGQGTMVTVSSASTKGPSVFPLAPCSRSTSESTAALGCLVKDYFPEPVTVSWNSGALTSGVHTFPAVLQSSGLYSLSSVVTVPSSNFGTQTYTCNVDHKPSNTKVDKTVERKSCVECPPCPAPPVAGPSVFLFPPKPKDTLMISRTPEVTCVVVDVSHEDPEVKFNWYVDGVEVHNAKTKPREEQYNSTYRVVSVLTVLHQDWLNGKEYKCKVSNKALPSSIEKTISKAKGQPREPQVYTLPPSREEMTKNQVSLTCLVKGFYPSDIAVEWESNGQPENNYKTTPPVLDSDGSFFLYSKLTVDKSRWQQGNVFSCSVMHEALHNHYTQKSLSLSPGK light: not shown	–	–	0.72 nM	0.00022 s⁻¹	300000 M⁻¹ s⁻¹
CD73.4-IgG2.5G1-KH (antibody) heavy: QVQLVESGGGVVQPGRSLRLSCAASGFTFSNYGMHWVRQAPGKGLEWVAVILYDGSNKYYPDSVKGRFTISRDNSKNTLYLQMNSLRAEDTAVYYCARGGSSWYPDSFDIWGQGTMVTVSSASTKGPSVFPLAPSSRSTSESTAALGCLVKDYFPEPVTVSWNSGALTSGVHTFPAVLQSSGLYSLSSVVTVPSSNFGTQTYTCNVDHKPSNTKVDKTVERKCCVECPPCPAPPVAGPSVFLFPPKPKDTLMISRTPEVTCVVVDVSHEDPEVKFNWYVDGVEVHNAKTKPREEQYNSTYRVVSVLTVLHQDWLNGKEYKCKVSNKALPAPIEKTISKAKGQPREPQVYTLPPSREEMTKNQVSLTCLVKGFYPSDIAVEWESNGQPENNYKTTPPVLDSDGSFFLYSKLTVDKSRWQQGNVFSCSVMHEALHNHYTQKSLSLSPGK light: not shown	42	0.44 nM	–	–	–
CD73.4-IgG2.3G1-KH (antibody) heavy: QVQLVESGGGVVQPGRSLRLSCAASGFTFSNYGMHWVRQAPGKGLEWVAVILYDGSNKYYPDSVKGRFTISRDNSKNTLYLQMNSLRAEDTAVYYCARGGSSWYPDSFDIWGQGTMVTVSSASTKGPSVFPLAPCSRSTSESTAALGCLVKDYFPEPVTVSWNSGALTSGVHTFPAVLQSSGLYSLSSVVTVPSSNFGTQTYTCNVDHKPSNTKVDKTVERKSCVECPPCPAPPVAGPSVFLFPPKPKDTLMISRTPEVTCVVVDVSHEDPEVKFNWYVDGVEVHNAKTKPREEQYNSTYRVVSVLTVLHQDWLNGKEYKCKVSNKALPAPIEKTISKAKGQPREPQVYTLPPSREEMTKNQVSLTCLVKGFYPSDIAVEWESNGQPENNYKTTPPVLDSDGSFFLYSKLTVDKSRWQQGNVFSCSVMHEALHNHYTQKSLSLSPGK light: not shown	52	1.7 nM	–	–	–
CD73.4-IgG2.5 (antibody) heavy: QVQLVESGGGVVQPGRSLRLSCAASGFTFSNYGMHWVRQAPGKGLEWVAVILYDGSNKYYPDSVKGRFTISRDNSKNTLYLQMNSLRAEDTAVYYCARGGSSWYPDSFDIWGQGTMVTVSSASTKGPSVFPLAPSSRSTSESTAALGCLVKDYFPEPVTVSWNSGALTSGVHTFPAVLQSSGLYSLSSVVTVPSSNFGTQTYTCNVDHKPSNTKVDKTVERKCCVECPPCPAPPVAGPSVFLFPPKPKDTLMISRTPEVTCVVVDVSHEDPEVQFNWYVDGVEVHNAKTKPREEQFNSTFRVVSVLTVVHQDWLNGKEYKCKVSNKGLPAPIEKTISKTKGQPREPQVYTLPPSREEMTKNQVSLTCLVKGFYPSDIAVEWESNGQPENNYKTTPPMLDSDGSFFLYSKLTVDKSRWQQGNVFSCSVMHEALHNHYTQKSLSLSPGK light: not shown	51	2.17 nM	–	–	–
CD73.4-IgG2.5G1.1f-KH (antibody) heavy: QVQLVESGGGVVQPGRSLRLSCAASGFTFSNYGMHWVRQAPGKGLEWVAVILYDGSNKYYPDSVKGRFTISRDNSKNTLYLQMNSLRAEDTAVYYCARGGSSWYPDSFDIWGQGTMVTVSSASTKGPSVFPLAPSSRSTSESTAALGCLVKDYFPEPVTVSWNSGALTSGVHTFPAVLQSSGLYSLSSVVTVPSSNFGTQTYTCNVDHKPSNTKVDKTVERKCCVECPPCPAPPVAGPSVFLFPPKPKDTLMISRTPEVTCVVVDVSHEDPEVKFNWYVDGVEVHNAKTKPREEQYNSTYRVVSVLTVLHQDWLNGKEYKCKVSNKALPSSIEKTISKAKGQPREPQVYTLPPSREEMTKNQVSLTCLVKGFYPSDIAVEWESNGQPENNYKTTPPVLDSDGSFFLYSKLTVDKSRWQQGNVFSCSVMHEALHNHYTQKSLSLSPGK light: not shown	45	0.87 nM	–	–	–
